This data set can be described thus: yeast display, Sf9 membrane polyspecificity reagent, FACS + sequencing; frameworks hold sequencing errors. An outline of the steps: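 Sorting gates, low and high (top ~1%), were placed on anti-HA fluorescence to track expression and on streptavidin fluorescence to track reagent binding. A clone's polyreactivity label is taken from the gate it came out of. The reagent was 10% biotinylated, detergent-solubilized Sf9 membrane, applied for 1 hour at 4 °C to galactose-induced yeast display cells.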
In the case of “QVQLVESGGGLVQAGGSLRLSCAASGRTFYYYVMGWYRQAPGKERELVAAINSGGNTNYADSVKGRFTISRDNAKNTVYLQMNSLKPEDTAVYYCAADHYRSFRYFESSSTHDYWGQGTQVNVSS”, the “polyreactivity (PSR sort gate)” value was “low polyreactivity”. In the case of “QVQLVESGGGLVQAGGSLRLSCAASGRTGVNAMGWYRQAPGKERELVAAINNGDSTYYADSVKGRFTISRDNAKKTVYLQMNSLNPEDTAVYYCAAGLDEGDYWQESDYWGQGTQVTVSS”, the “polyreactivity (PSR sort gate)” value is recorded as “low polyreactivity”. Under “QVQLVESGGGLVQAGGSLRLSCAASGRTIASYTMGWYRQAPGKERELVAAISKSGGSTYYADSVKGRFTISRDNAKNTVYLQMNSLKPEDTAVYYCAKRRSGNVRKYDYWGQGTQVTVSS” stands “high polyreactivity”; under “QVQLVESGGGLVQAGGSLRLSCAASGRTIAYNAMGWYRQAPGKERELVAAISWSGGSTYYADSVKGRFTISRDNAKNTVYLQMNSLKPEDTAVYYCAKRFGQYRYPYDYWGQGTQVTVSS”, “high polyreactivity”. Consider “QVQLVESGGGLVQAGGSLRLSCAASGRTIDHYAMGWYRQAPGKERELVAAISTTGGSTYYADSVKGRFTISRDNAKNTVYLQMNSLKPEDTAVYYCAARQRYFWYTTNYNYWGQGTQVTVSS”, for which the “polyreactivity (PSR sort gate)” value is “high polyreactivity”.

As for “QVQLVESGGGLVQAGGSLRLSCAASGRTIDPNAMGWYRQAPGKERELVAAITRTGVRTYYADSVKGRFTISRDNAKNTVYLQMNSLKPEDTAVYYCNRYGARSNDYWGQGNQVTVSS”, the “polyreactivity (PSR sort gate)” value was “low polyreactivity”. Under “QVQLVESGGGLVQAGGSLRLSCAASGRTIDSNAMGWYRQAPGKERELVAAISSDGGSTYYADSVKGRFTISRDNAKNTVYLQMNSLKPEDTAVYYCNKDDPVDGPLYFRKYDYWGQGTQVTVSS” stands “low polyreactivity”; under “QVQLVESGGGLVQAGGSLRLSCAASGRTIDYNGMGWYRQAPGKERELVAVISTSGGSTFYADSVKGRFTISRDNAKKTVYLQMNSLKPEDTAVYYCAADFIVAYTLHGSYDYWGQGTQVTVSS”, “low polyreactivity”. The same measure for “QVQLVESGGGLVQAGGSLRLSCAASGRTIEGYAMGCYRQAPGKERELVAAISRRGGSTYYADSVKGRFTISRDNAKNTVYLQMNSLKPEDTAVYYCAARDGSTGAVRYYYWGQGTQVTVSS”: “high polyreactivity”; for “QVQLVESGGGLVQAGGSLRLSCAASGRTIEHSAMGWYRQAPGKERELVAAINSSDGGTYYADSVKGRFTISRDNPKNTVYLQMNSLKPEDTAVYYCAAAEFGSVPGYEMDYWGHGTQVTVSS”: “low polyreactivity”; for “QVQLVESGGGLVQAGGSLRLSCAASGRTIEQYDMGWYRQAPGKDRELVAAISWRGGGTYYADSVKGRFTISRDNAKNTVYLQMNSLKPEDTAVYYCAKKSHTTDEGYDYWGQGTQVTVSS”: “low polyreactivity”. The same measure for “QVQLVESGGGLVQAGGSLRLSCAASGRTIEWYAMGWYRQAPGKEREFVARISGIGGSTYYADSVKGRFTISRDKAENTVYLQMNSLKPEDTAVYYCAAVSYFGYYYWGQGTQVTVSS”: “high polyreactivity”; for “QVQLVESGGGLVQAGGSLRLSCAASGRTIEYNAMGWYRQAPGKEREFVAAITYSGGGTYYADSVKGRFTISRDNAKNTVYLQMNSLKPEDTAVYYCARERTRVHKHYYWGQGTQVTVSS”: “low polyreactivity”. Take “QVQLVESGGGLVQAGGSLRLSCAASGRTIGKNAMGWYRQAPGKERELVAAISWRGGSTRYADSVKGRFTISRDNAKNTVYLQMNSLKPEDTAVYYCAVRFLTYWHGSYWYDYWGQGTQVTVSS”: the “polyreactivity (PSR sort gate)” value is “high polyreactivity”. The same measure for “QVQLVESGGGLVQAGGSLRLSCAASGRTIGPYAMGWYRQAPGKERELVAAISGGGSTNYADSVKGRFTISRDNAKNTVSLQMKSLKPEDTAVYYCNTEYPISGEEEYWGQGTQVTVSS”: “low polyreactivity”; for “QVQLVESGGGLVQAGGSLRLSCAASGRTIKYYAMGWYRQAPGKERELVAVITYGGSTDYADSVKGRFTISRDNAKNTVYLQLNSLKPEDTAVYYCAAGFGRHYWGYDSWGQGTQVTVSS”: “low polyreactivity”.

As to “QVQLVESGGGLVQAGGSLRLSCAASGRTILGYTMGWYRQAPGKESEFVAAITFSGDSTYYADSVKGRFTISRDKAKNTVYLQMNSLKPEDTAVYYCAAAIPRFSAGHYDYWGQGTQVTVSS”, the “polyreactivity (PSR sort gate)” value was “high polyreactivity”.

As for “QVQLVESGGGLVQAGGSLRLSCAASGRTINRYAMGCYRHAPGKERELVAAINSVGSTYYADSVKGRFTISRDNAKYTVYLQMNSLKPEDTAVFYCNAVQGSRFGYWGEGTQVTVSS”, the “polyreactivity (PSR sort gate)” value is “high polyreactivity”. For “QVQLVESGGGLVQAGGSLRLSCAASGRTIPAYAMGWYRQAPGKERELVAAISWGGGSTYYADSVKGRFTISRDNAKNTVYLQMNSLKPEDTAVYYCAVAGYWFAVAEYDYWGQGTQVTVSS”, the “polyreactivity (PSR sort gate)” value is “low polyreactivity”.

As for “QVQLVESGGGLVQAGGSLRLSCAASGRTIRLYAMGWYRQAPGQERELVAAITRGGRTNYADSVKGRFTISRDNAKNTVYLQMNSLKPEDTAVYYCAARYVERHTDYYYWGQGTQVTVSS”, the “polyreactivity (PSR sort gate)” value is listed as “low polyreactivity”. In the case of “QVQLVESGGGLVQAGGSLRLSCAASGRTIRWNAMGWYRQAPGKERELVAAIDSVDNTYYADSVNGRFTISRDNAKNTVYFQMNSLKPEDTAVYYCARDTYWQVQMDYWGQGTQVTVSS”, the “polyreactivity (PSR sort gate)” value is listed as “low polyreactivity”. In the case of “QVQLVESGGGLVQAGGSLRLSCAASGRTIRWNAMGWYRQAPGKERELVGAIDSVDNTYYADSVKGRFTISRYNAKNTVYLQMNSLKPEDTGVYYCARDPYWQVQMDYWGQGTQVTVSS”, the “polyreactivity (PSR sort gate)” value is reported as “low polyreactivity”.

Turning to “QVQLVESGGGLVQAGGSLRLSCAASGRTIRYYAMGWYRQAPGKERELVAAITWSVGSTYYADSVKGRFTISRDNAKNTVYLQMNSLKPEDTAVYYCAARLYQLYYWGQGTQVTVSS”, the “polyreactivity (PSR sort gate)” value is “high polyreactivity”.

Regarding “QVQLVESGGGLVQAGGSLRLSCAASGRTISYNTMGWYRQARGKERELVARITWGGGSTNYADSVKGSFTISRDNAKNTVYLQMNSLKPEDTAVYYCAREYSSVYWVRHLFYYWGQGTQVTVSS”, the “polyreactivity (PSR sort gate)” value was “low polyreactivity”. The same measure for “QVQLVESGGGLVQAGGSLRLSCAASGRTITRYTMGWYRQAPGKERELVAAIRYSGGSTYYADSVKGRFTISRDTAKNTIYLQMNSLKPEDTAVYYCAARSYYYGFLYSYDYWGQGTQVTVSS”: “low polyreactivity”; for “QVQLVESGGGLVQAGGSLRLSCAASGRTITYYAMGWYRQAPGKERELVAAITWSGGSTYYADSVKGRFTISRDNAKNTVYLQMNSLKPEDTAVDYCAKEFYYSSGFDYWGQGTQVTVSS”: “low polyreactivity”; for “QVQLVESGGGLVQAGGSLRLSCAASGRTIVTNAMGWYRQAPGKERELVAAITTRGSRTYYADSVKGRFTISRDNAKNTVYLQMNSLKPEDTAVYYCAAKQKHTQQTGWKYEYWGQGTQVTVSS”: “high polyreactivity”. Regarding “QVQLVESGGGLVQAGGSLRLSCAASGRTIVYYAMGRYRQAPGKERELVAAISSSGSTYYADSVKGRFTISRDNAKNTVYLQMNSLKPEDTAVYYCATTHDYWLWGMGYWGQGTQVTVSS”, the “polyreactivity (PSR sort gate)” value is given as “high polyreactivity”. Under “QVQLVESGGGLVQAGGSLRLSCAASGRTIYKYMGWDRQAPGKERELVAAIRWSGGSTYYADSVKGRFTISRDNAKNTVYLQMNSLKPEETAVYYCNVDSYGYKYDYWGQGTQVTVSS” stands “low polyreactivity”; under “QVQLVESGGGLVQAGGSLRLSCAASGRTIYRNAMGWYRQAPGKERELVAAISRSGGRTFYAYSVKGRFTISRDNAKNTVYLQMNSLKPEDTEVYYCADESYGVRLPSGYWGQGTQVTVSS”, “high polyreactivity”.
